This is an account of results in publication PMC2646663 (Biochemistry, 2008).

For data set [1], the target named is T1, Formylglycinamide ribonucleotide amidotransferase (small PurL) from Thermotoga maritima (Thermotoga maritima, UniProt Q9X0X3 1-603).
T1 sequence: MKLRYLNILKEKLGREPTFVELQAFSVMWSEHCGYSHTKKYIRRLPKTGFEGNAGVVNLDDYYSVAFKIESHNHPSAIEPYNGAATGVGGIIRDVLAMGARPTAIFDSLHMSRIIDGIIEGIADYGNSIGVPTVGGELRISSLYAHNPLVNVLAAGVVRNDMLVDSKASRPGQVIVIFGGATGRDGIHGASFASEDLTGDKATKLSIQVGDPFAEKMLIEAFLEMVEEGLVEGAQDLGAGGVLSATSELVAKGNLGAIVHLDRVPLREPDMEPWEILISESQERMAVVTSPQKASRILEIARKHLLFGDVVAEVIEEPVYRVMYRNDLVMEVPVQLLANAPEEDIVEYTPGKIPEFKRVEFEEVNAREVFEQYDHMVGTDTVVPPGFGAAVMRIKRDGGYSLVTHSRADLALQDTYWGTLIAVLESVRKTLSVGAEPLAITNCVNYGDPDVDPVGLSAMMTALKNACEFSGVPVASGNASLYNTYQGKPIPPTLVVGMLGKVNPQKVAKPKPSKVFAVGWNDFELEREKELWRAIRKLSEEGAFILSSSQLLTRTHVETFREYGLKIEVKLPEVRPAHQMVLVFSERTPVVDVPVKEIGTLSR
In words: crystal structure.

The data set “crystal structure” concerns the molecule itself. Put plainly: crystal structure.

B1: PurQ (glutaminase subunit of FGAR amidotransferase) from Thermotoga maritima (enzyme)
chain: MKPRACVVVYPGSNCDRDAYHALEINGFEPSYVGLDDKLDDYELIILPGGFSYGDYLRPGAVAAREKIAFEIAKAAERGKLIMGICNGFQILIEMGLLKGALLQNSSGKFICKWVDLIVENNDTPFTNAFEKGEKIRIPIAHGFGRYVKIDDVNVVLRYVKDVNGSDERIAGVLNESGNVFGLMPHPERAVEELIGGEDGKKVFQSILNYLKR
modifications: glutamyl thioester intermediate covalently linked to Cys86 (seen in the crystal structure)
Regarding B1, the stoichiometry N – broadly, a count of units in the complex or per binding partner – in data set [1] stood at 1 TmPurQ per TmPurL.

B2: PurS from Thermotoga maritima (natural protein)
chain: MPLFKFAIDVQYRSNVRDPRGETIERVLREEKGLPVKKLRLGKSIHLEVEAENKEKAYEIVKKACEELLVNPVVEEYEVREL
For the molecule B2, the “stoichiometry N” value was found to be 2 in the data set “crystal structure” and 2 TmPurS per TmPurL in data set [1].
